Measurements from US20150307599A1 (GARVAN INSTITUTE OF MEDICAL RESEARCH, published 2015).
Where no end group is shown, it is not given here.

Key:
Assay in all cases: indirect ELISA, peptide coated on the plate (20 µg/mL), MAb 5E12-B7 at 1 µg/mL, O.D. 450 nm
1p23-ARYYSALRHY = target: T1, 1p23-ARYYSALRHY
T1 construct: NPY residues 18-27; also called Peptide 1p23 (10 mer shifting across NPY)
T1 peptide: ARYYSALRHY-NH2
Description: (§1) ELISA was used to map the reactivity of purified MAb 5E12-B7 against the peptides described in Table 3. Briefly, ELISA microwell plates (96-well Maxisorp, Nunc) were coated overnight at 4° C. with 50 μL of mapping peptides (Table 3) diluted to 20 μg/mL in carbonate coating buffer (CCB). Between each of the following steps, microwell plates were washed three times with PBST using a plate washer (BioTek). Coated wells were blocked with 200 μL PBS containing 5% w/v skim milk (Diploma). Blocked wells were incubated for 1 hr with 50 μL of MAb 5E12-B7 diluted to 1 μg/mL in skim milk/PBST. Wells were then incubated for 1 hr with 50 μL Peroxidase-conjugated AffiniPure F(ab)2 fragment goat anti-mouse secondary antibody (Jackson) diluted 1:5000 in skim milk/PBST. Ig binding was detected by incubation of wells with 50 μL TMB substrate (Becton Dickinson). Substrate reaction was stopped after 15 min with 50 μL 1M H₂SO₄ and O.D. 450 nm was measured.

1p20-EDMARYYSAL = target: T2, 1p20-EDMARYYSAL
T2 construct: NPY residues 15-24; also called Peptide 1p20 (10 mer shifting across NPY)
T2 peptide: EDMARYYSAL-NH2
Description: as §1

1p25-YYSALRHYIN = target: T3, 1p25-YYSALRHYIN
T3 construct: NPY residues 20-29; also called Peptide 1p25 (10 mer shifting across NPY)
T3 peptide: YYSALRHYIN-NH2
Description: as §1

1p24-RYYSALRHYI = target: T4, 1p24-RYYSALRHYI
T4 construct: NPY residues 19-28; also called Peptide 1p24 (10 mer shifting across NPY)
T4 peptide: RYYSALRHYI-NH2
Description: as §1

1p29-LRHYINLITR = target: T5, 1p29-LRHYINLITR
T5 construct: NPY residues 24-33; also called Peptide 1p29 (10 mer shifting across NPY)
T5 peptide: LRHYINLITR-NH2
Description: as §1

1p28-ALRHYINLIT = target: T6, 1p28-ALRHYINLIT
T6 construct: NPY residues 23-32; also called Peptide 1p28 (10 mer shifting across NPY)
T6 peptide: ALRHYINLIT-NH2
Description: as §1

1p27-SALRHYINLI = target: T7, 1p27-SALRHYINLI
T7 construct: NPY residues 22-31; also called Peptide 1p27 (10 mer shifting across NPY)
T7 peptide: SALRHYINLI-NH2
Description: as §1

1p21-DMARYYSALR = target: T8, 1p21-DMARYYSALR
T8 construct: NPY residues 16-25; also called Peptide 1p21 (10 mer shifting across NPY)
T8 peptide: DMARYYSALR-NH2
Description: as §1

1p30-RHYINLITRQ = target: T9, 1p30-RHYINLITRQ
T9 construct: NPY residues 25-34; also called Peptide 1p30 (10 mer shifting across NPY)
T9 peptide: RHYINLITRQ-NH2
Description: as §1

1p19-AEDMARYYSA = target: T10, 1p19-AEDMARYYSA
T10 construct: also called Peptide 1p19 (10 mer shifting across NPY)
T10 peptide: AEDMARYYSA-NH2
Description: as §1

1p26-YSALRHYINL = target: T11, 1p26-YSALRHYINL
T11 construct: NPY residues 21-30; also called Peptide 1p26 (10 mer shifting across NPY)
T11 peptide: YSALRHYINL-NH2
Description: as §1

1p31-HYINLITRQR = target: T12, 1p31-HYINLITRQR
T12 construct: NPY residues 26-35; also called Peptide 1p31 (10 mer shifting across NPY)
T12 peptide: HYINLITRQR-NH2
Description: as §1

binding result (1p23-ARYYSALRHY): no binding (tested: 1 µg/mL)
binding result (1p20-EDMARYYSAL): no binding (tested: 1 µg/mL)
binding result (1p25-YYSALRHYIN): no binding (tested: 1 µg/mL)
binding result (1p24-RYYSALRHYI): no binding (tested: 1 µg/mL)
binding result (1p29-LRHYINLITR): no binding (tested: 1 µg/mL)
binding result (1p28-ALRHYINLIT): no binding (tested: 1 µg/mL)
binding result (1p27-SALRHYINLI): no binding (tested: 1 µg/mL)
binding result (1p21-DMARYYSALR): no binding (tested: 1 µg/mL)
binding result (1p30-RHYINLITRQ): no binding (tested: 1 µg/mL)
binding result (1p19-AEDMARYYSA): no binding (tested: 1 µg/mL)
binding result (1p26-YSALRHYINL): no binding (tested: 1 µg/mL)
binding result (1p31-HYINLITRQR): no binding (tested: 1 µg/mL)
B1: MAb 5E12-B7 (antibody, V domains shown)
VH: QVQLQHPGTEVVKPGASVKLSCKASGYTFTNYWMHWVKQRPGQGLEWIGNIDPSNGGTNYNEKFKSKATLTVDKSSSTAYMQLSSLTSEDSAVYYCASFAYWGQGTLVTVSA
VL: DIQMTQSPASLSASVGETVTITCRASGNIHNYLAWYQQKQGKSPQLLVYNAKTLADGVPSRFSGSGSGTQYSLKISSLRPEDFGSYYCQHFWSPPFTFGSGTKLEIK
notes: Biotinylated for the Biacore and Octet assays; also called PYY/NPY antibody (5E12); anti-NPY/PYY antibody 5E12
